Results on two molecules are retold here after patent publication US6649744B1, “Rnase P polypeptides, polynucleotides, and methods using their mechanisms of action” (SmithKline Beecham Corporation, priority 1999, dated 2003).

Read-outs that look alike come from different tables or passages of the source.

One series relates to E. coli ptRNA^met. Kind of series: Cleavage of ptRNAmet by RNase P RNA or holoenzyme (gel, autoradiography). In kind it is biochemical. The note with it: 100 mM TrisCl pH8, 100 mM MgCl2, 5% PEG. On the procedure: E. coli ptRNA^met, a substrate for RNase P, was transcribed in vitro by T7 RNA polymerase (Epicenter) in the presence of [α-32P] UTP to internally label the RNA. The DNA template pGem3Z-ptRNA was linearized with BstNI restriction endonuclease to allow run-off transcription. The transcription was performed in a 20 μl reaction at 37° C. for 60min. To remove unincorporated nucleotides the 93 nt RNA (sequence shown below) was cleaned under non-denaturing conditions using a CLONTECH Chroma-Spin 10 column. To calculate the specific activity of the RNA probe, 1 μl samples were removed before and after cleaning, mixed with 5 ml scintillation cocktail and counted in a scintillation counter. ptRNAmet in pGem-3Z, sequence of the transcript (93mer) 5′→3′ [SEQ ID NO: 12]: GGGCGAAUUCGCCUCGGCUACGUAGCUCAGUUGGUUAGAGCACAUCACUCAUAAUGAUGGGGUCACAGGUUCGAAUCCCGUCGUAGCCACCAG
(§1) E. coli M1 RNA is able to cleave ptRNA^met or the minimal substrate p6AT-1 in 100 mM NH4Cl, 100 mM TrisCl pH 7.5, 100 mM MgCl2. The conditions for cleavage of either substrate by S. aureus SP RNA were unknown and clearly deviated from those optimized for E. coli. A large number of different buffer conditions were investigated in order to determine optimal buffer conditions for either substrate cleavage by the S. aureus ribozyme.
(§2) Cleavage reactions (20 μl) were all performed at 37° C. for 30 min with 100 nM SP RNA and an additional 200 nM SP protein in the holoenzyme reactions. Substrates (ptRNA^met or p6AT-1) were added in trace amounts (single-turnover reactions). Cleavage was monitored by size resolution of the intact precursor and the cleaved leader sequence by denaturing gel elctrophoresis and autoradiography or visualization on the phosphorimager (Molecular Dynamics Storm 860).

In the next series the test system is p6AT-1. Briefly: Cleavage of minimal substrate p6AT-1 by RNase P RNA or holoenzyme (gel, autoradiography). The format is biochemical. On the procedure:
The chemically synthesized 42nt RNA molecule p6AT-l was 5′ end-labeled with high specific activity [γ-^32p] ATP ([…]) using bacteriophage T4 polynucleotide kinase. The labeling was performed in a 10 μl reaction at 37° C. for 30 min. The enzyme was heat-inactivated at 95° C. for 2 min. To remove salts, unincorporated nucleotides and the enzyme, p6AT-1 was gel purified from a 20% polyacrylamide TBE gel with 7M urea. The RNA was extracted from the gel slice and precipitated with 300 mM NaOAc and 2.5 volumes 100% ethanol. After a spin at 14,000 g and 4° C. the RNA pellet was washed twice with chilled 70% ethanol. The pellet was air dried and subsequently resuspended in 50 μl water. 0.5 μl were spotted onto a filter paper disk and counted in a scintillation counter (Cherenkov analysis).
as §1, §2

For the next series, the system named is S. aureus pre-tRNA^phe. Briefly: RNase P kinetics (Michaelis Menten) with cloned pre-tRNAphe as substrate. The format is biochemical. The note with it: 50 mM Tris pH8.0, 1 M NH4Cl, 200 mM MgCl2, 5% PEG.
The target of a further series is S. aureus RNase P RNA. Kind of series: Filter binding / gel-shift assay of RNase P protein to RNase P RNA.

Method for S. aureus RNase P RNA: The RNase P RNA/protein interactions were investigated by gel mobility shift and filter binding experiments.
Binding isotherm of RNase P RNA obtained by filter binding assay was asswssed. The 3′-end labeled RNA was mixed with the protein in the binding buffer containing 20 mM K-Hepes, pH8.0, 0.01% NP-40, 400 mM NH4OAc, 10 mM MgCl2, and 5% glycererol. The Kd value was generated by fitting the data with Grafit 4 one-site ligand binding equation: % binding=plateau/(1+Kd/[S. aureus protein]).
Method for S. aureus pre-tRNA^phe: A cloned pre-tRNA^phe was used as a substrate for kinetic characterizations for both the holoenzyme and RNA only reactions.
RNase P RNA-only kinetics in the following buffer: 50 mM Tris, pH8.0, 1 M NH4Cl, 200 mM MgCl2, and 5% PEG. […] In both experiments, a cloned pre-tRNA^phe was used as substrate.

B1: SP RNA: S. aureus RNase P catalytic RNA component, transcribed in vitro from plasmid pSPR with T7 RNA polymerase; gene SEQ ID NO:3 (nucleic acid, listed as Staphylococcus aureus)
DNA: GTTCTGATATTTTGGGTAATCGCTATATTATATAGAGGAAAGTCCATGCTCACACAGTCTGAGATGATTGTAGTGTTCGTGCTTGATGAAACAATAAATCAAGGCATTAATTTGACGGCAATGAAATATCCTAAGTCTTTCGATATGGATAGAGTAATTTGAAAGTGCCACAGTGACGTAGCTTTTATAGAAATATAAAAGGTGGAACGCGGTAAACCCCTCGAGTGAGCAATCCAAATTTGGTAGGAGCACTTGTTTAACGGAATTCAACGTATAAACGAGACACACTTCGCGAAATGAAGTGGTGTACGACAGATGGTTATCACCTGAGTACCAGTGTGACTAGTGCACGTGATGAGTACGATGGAACAGAACATGGCTTATAGAAATATCACTACTA
modifications: RNA transcript of gene
With B1, the ptRNAmet substrate processed result in the series with E. coli ptRNA^met (150 mM KCl) is listed as “more than 50%”; with E. coli ptRNA^met (800 mM KCl), 82%. This molecule had a ptRNA cleaved in the series with E. coli ptRNA^met (KCl 1M or above) of 85%. In addition, the p6AT-1 cleavage entry with p6AT-1 (10 mM MgCl2, 2M KCl, 100 mM TrisCl pH8, 5% PEG) is given as “No cleavage”; with p6AT-1 (1M KCl or NH4Cl, 100 mM TrisCl pH7.5, 100 mM MgCl2), “hardly any cleavage product detectable”; in the series with p6AT-1 (KCl below 400 mM, 100 mM TrisCl pH8, 100 mM MgCl2, 5% PEG), “No cleavage”. Besides, in the series on p6AT-1 (1.5M KCl, 100 mM TrisCl pH8, 100 mM MgCl2, 5% PEG, 37° C. 30 min, 100 nM SP RNA), the “p6AT-1 cleavage, maximal level” value is given as 27%. In the series on S. aureus pre-tRNA^phe, the “pre-tRNAphe processing, RNA-only” value is “efficiently processed”.

B2: S. aureus RNase P protein: 117 amino acid translation product of the S. aureus spp gene, SEQ ID NO:2, expressed as MBP fusion and cleaved (protein, listed as Staphylococcus aureus)
chain: MLLEKVYRIKKNADFGRIYKKGHSVANRQFVVYTCNNKEIDHFRLGISVSKKLGNAVLRNKIKRAIRENFKVHKSHILAKDIIVIARQPAKDMTTLQIQNSLEHVLKIAKVFNKKIK
B2: the Kd on S. aureus RNase P RNA (20 mM K-Hepes pH8.0, 0.01% NP-40, 400 mM NH4OAc, 10 mM MgCl2, 5% glycererol, 3′-end labeled RNA, read-out: Kd, filter binding isotherm) came to 8 ± 1 nM; at S. aureus RNase P RNA (filter binding and gel-shift assays, read-out: binding constant of the complex) it was 20 nM.
